Numbered stars: 1 amine (or outer) side, 2 acyl side, 3 side chain; on linkers, the order of the positions; unused ones are H or OH. Bridge positions count the residues as written; N and C are the ends. Peptide text beside a SMILES is read from it. * marks the point of attachment. Doxorubicin(3'-N) = COc1cccc2c1C(=O)c1c(O)c3c(c(O)c1C2=O)C[C@@](O)(C(=O)CO)C[C@@H]3O[C@H]1C[C@H](N*)[C@H](O)[C@H](C)O1; Suc = O=C(CCC(=O)[*:2])[*:1]; AEEEA = NCCOCCOCCOCC(=O)O
Legend:
HL-60 cells = details: HL-60, 10 μM, 1 h; for intracellular fluorescence distribution / uptake at 4 °C / intracellular fluorescence distribution at 37 °C: RPMI 1640, epifluorescence, rhodamine filter; for entry mechanism into cells: 37 °C compared with 4 °C
[1] = pH 7.4; cited from earlier work
[2] = tested on: ICAM-1/LFA-1-mediated heterotypic T-cell adhesion; details: cited from earlier work
I-domain of LFA-1 = details: cited from earlier work

For `COc1cccc2c1C(=O)c1c(O)c3c(c(O)c1C2=O)C[C@@](O)(C(=O)CO)C[C@@H]3O[C@H]1C[C@H](N)[C@H](O)[C@H](C)O1` [DOX, Doxorubicin, reference compound], the “intracellular fluorescence distribution / uptake at 4 °C” value (HL-60 cells) is listed as “uptake of DOX was suppressed”, the “intracellular fluorescence distribution at 37 °C” value (HL-60 cells) is listed as “localized inside the nucleus” and the distribution ratio [1] is listed as 1.2.
In the case of `COc1cccc2c1C(=O)c1c(O)c3c(c(O)c1C2=O)C[C@@](O)(C(=O)CO)C[C@@H]3O[C@H]1C[C@H](NC(=O)CCC(=O)NCCOCCOCCOCC(=O)N[C@H]2CSSC[C@@H](C(=O)O)NC(=O)[C@H](C(C)C)NC(=O)[C@H](CO)NC(=O)CNC(=O)CNC(=O)[C@H](CCCNC(=N)N)NC(=O)[C@@H]3CCCN3C2=O)[C@H](O)[C@H](C)O1` [DOX-PEGcIBR7] ({Doxorubicin(3'-N)-Suc-AEEEA}-CPRGGSVC-OH; disulfide 1-8), the “intracellular fluorescence distribution / uptake at 4 °C” value (HL-60 cells) is reported as “diffuse fluorescence of the conjugates inside the cell cytosol”, the “entry mechanism into cells” value (HL-60 cells) is reported as “passive diffusion” and the “intracellular fluorescence distribution at 37 °C” value (HL-60 cells) is reported as “diffuse fluorescence distribution pattern in the cellular cytoplasm”.
For `COc1cccc2c1C(=O)c1c(O)c3c(c(O)c1C2=O)C[C@@](O)(C(=O)CO)C[C@@H]3O[C@H]1C[C@H](NC(=O)CCC(=O)N[C@H]2CSSC[C@@H](C(=O)O)NC(=O)[C@H](C(C)C)NC(=O)[C@H](CO)NC(=O)CNC(=O)CNC(=O)[C@H](CCCNC(=N)N)NC(=O)[C@@H]3CCCN3C2=O)[C@H](O)[C@H](C)O1` [DOX-cIBR7] ({Doxorubicin(3'-N)-Suc}-CPRGGSVC-OH; disulfide 1-8), the “intracellular fluorescence distribution / uptake at 4 °C” value (HL-60 cells) was “diffuse fluorescence of the conjugates inside the cell cytosol”, the “entry mechanism into cells” value (HL-60 cells) was “passive diffusion” and the “intracellular fluorescence distribution at 37 °C” value (HL-60 cells) was “diffuse fluorescence distribution pattern in the cellular cytoplasm”.
For CNGRC [DOX-CNGRC], the distribution ratio [1] is given as 5.3.
In the case of cyclo(1,6)PRGGKV (head to tail), the “peptide activity after introduction of Lys5 in place of Ser5” value [2] is listed as “lower peptide activity”.
In the case of cyclo(1,8)CPRGGSVC (disulfide) [cIBR7], the “binding affinity to the isolated I-domain compared with cIBR” value (I-domain of LFA-1) is given as “higher” and the “activity to inhibit heterotypic T-cell adhesion compared with parent cIBR” value [2] is given as “better activity”.

Source: PMC2683983 (Molecular pharmaceutics, 2009)
